# Test results published in the DeepSol protein solubility set.
# Experiment: soluble on expression in E. coli; label from the status in PepcDB or PDB records
row,Sequence,soluble on expression in E. coli
1,MENGCGKMESFSPQALEMIRSLGTTHIWYIGMLEQATQTNYSDAGILPCHPEIVKGKAGSPYAVRDYYDVSPELATNIPNRMAEFHDLIERTHRAGMGVIMDFVPNHVAREYRSDVKPSGTKDLGEEDDPLVAFSPNNNFYYLPGKCLELDFGERSRTMMPYHEEPARATGNDRFSSHIDKEDWYETVKLNYGIDYLNGGSKHFDPLPDTWIRMRDILLFWASKGIDGFRCDMAEMVPVKFWEWAIPQIRERHSVLFIAEIYRPELYESYLQAGFDYLYDKVGMYDCLRTVICGYGSASDISRVVRQTERFADNMLYFLENHDEQRIASDFFAEDARKALPAVTIAATIGRNPFMLYFAQELGERGMDAEGFSGKDGRTTIFDYWSLDKMQRRINDGRYDTTMLSEEERLLLQSYTRLLHDVCALPSVIQGSFYDLGYANQNNPYFRPNREFAFLRHTTDEILLVAANFAPHEAEIRVIIPEHAFQTMQIKDNAAFLLTDMLSGENSIGCLTQYAPYPLHLPAYGYALHRFRPL,not soluble
2,MSLYRHIPLVALSLFSSLFLAACGNGTPPPAAARPAIVVQPQPAGEVSQAFPGEIRARHEPELAFRIGGKVIRRLVEVGERVKKDQPLAELDPQDVRLQLEAARAQVSAAEANLQTVRAEYRRYRTLLDRNLVSHSQFENIQNSYRAGEARLKQIRAEFNVADNQAGYAVLRSPQDGVIASRRVEVGQVVAAGQTVFSLAADGEREVLIGLPEHSFERFRIGQPVSVELWSQRDRRFAGHIRELSPAADPQSRTFAARVAFDDRATPAELGQSARVYVAAAEAVPLSVPLSALTAEAGQAFVWVVEPGSSTLRRQPVRTGPYAEDRVPVLEGLKAGDWVVATGVQVLREGQQVRPIDRANRTVKLAAKEEGHHHHHH,soluble
3,MAHHHHHHMATVGDPLFRIHEPTYAFLDCSACIAFAGHLGRRMNESIRYGGRGGATFLSSHRLGKDNKLKRRDYATSELRGAEVLEKICNDSLFDDYALHFRADMRIRVYDNGESEYPLAQHYSKEDSRILKAVKTKAVHVFCTRVMDEEEDAMTSLVREVELLSELEQRLCGGYLEMRNITAPPFPVEKAVTAVCVGVEPSIEAEVRRLEKYEKWQASISKGTSQDKMKGAEGAESVVVKGVQYSKDDPLSFTVLRKPNAKSNGDTTEGGSDAAEDVRKQPDKDSVFMNFDL,not soluble
4,MSEISDAEKVRIASDFIKHAPPGEFNEVFNSVRMLLENDDLLKNKCVNAIAQYNVGQFVPVKLDGVAKQTLITPYNDLGNGRFYDEVSKKSFKYDHVRKEAADLQPHPAESGITEQWRQALQTQLDIYIDDHYAKSGTGVVFARNGVFTICIESHQFQPKNFCNGRWRSEWNVPVGDGKSGSQEMKGKILSQVHYYEDGNVQLFSEKEPVLKVNVSADFDKTAKEIIHAISEEETIYQNAVQENYANMSDTTFKALRRQLPVTRAKMDWNKAQTYRIGQEMK,soluble
5,MKALITAADIKKASETPEKILTISEADLITPAARDAAKELGVQITAHPVSLPPTVAPSPAFSPASPLDPALVSRIIEEVMVCLNRSGSPAQPQKEADPGGLRIVKGNSLILEDFATGNPRDQIKIKELFNKKECPLYSAGIMALDKTSYSLTPARDELNYIIEGTLECCIDNRCYTAQAGDTLYIPAQAKIILTAADKVKLFYVC,not soluble
6,MPSNPTRKGRVVVGMSGGVDSSVTAWLLKQQGYEVVGLFMKNWEDDDDSEYCSTRQDLLDAASVADLVGVEFEYVNFAAEYKDRVFAEFLREYSAGRTPNPDVLCNAEIKFKAFLDHAMALGAEHIATGHYARVRTVETPAGPRHQLLKALDDTKDQSYFLHRLNQVQLARTLFPLGELRKTEVRRIAHEIGLHNAAKKDSTGICFIGERPFREFLNRYLPSEPGPILTPEGQRVGTHHGLSFYTLGQRKGLGVGGVKGRQRDDGTAEAWYAARKDLARNVLYVVQGHDHPWLLSAQLQAQDASWIAGEPPAAGAYGAKTRYRQADAACRLDQAGGERFALAFEQAQWAVTPGQSAVLYDGEVCLGGGIIILEHHHHHH,soluble
7,MAHHHHHHMADDEPEYREAANPIEAFIDCARYDEPGDAEALRTLLSNSPSFLNSQDEQGRTALHVAAANGRLKVLETLLGYNPTPDVPNNEGNTALHFAALNNQTAAARLLLRHGWRASARNAFNKTPIQLIYGKQFEDMELLLLGHDDELEQFSGQASQAARGPAVVNEATVQQQPAVEAERATNAEQPRVNPVQKEQESDPTTLLGSVGVDEIE,soluble
8,MSRNMFKLAHISDVHLGPLPRLSIQELFSKRITGFVNWHRNRRKHLFASTLDLLLDDIRTHRADHLAVTGDLVNLASGIEIRAAAAWLRALGDPADTSVVPGNHDAYVPGAYEKSMRAWYDYVRGDLAPPQWQEDRRIFPYLRVRDKVAIVGCSTAVATPPFAASGFFSARQARDTVNMLRAAGEAGLFRVVMIHHPPIRGATAFHKRMIGIRRFAAVISTGGAELVLHGHTHLNTLHWLRGQVQPVPVVGIASASQGPGSIKPPAAYNLFSIDGAPGAWELEHHHHHH,soluble
9,MSSGVKASPHRFNRFEIKYLITEQDVPALREQLATRMSTDPLSPPGGYRVESLYFDSADLRCYTEKIEGLKFRRKLRIRTYGDGVLTPESTVSVEIKQRVNKVTQKRRLDLPFIYALALGDSTGAAVGEQVDVEKLLEISPENQHALIHEMASFAKNYRLRPIATTKYHREAFVGADAEESSRVTIDHGVSGRDRDFLLGQDLEDRPTVAQGLAVVEIKCDERVPFWLTDMTAQLEMSVIRMSKYCETIEAFHNRPASAFGAVDPIFLEHHHHHH,not soluble
10,MSLNNHKHARLTRLGRALLVNRVMQQNWTMRQASQAAGVSLRTGYKWLARFRSEGLDGLLDRSSRPHRSPKACAPEQVEHFAQQRRQRLPLWRIAREAGRSLATVARYMERIGLSRLASLEPPAPVRRYERASPGELLHIDTKRLGRIRGVGHRITGDRAQNRNRGIGWDAVHLAIDDFSRVSFARILDDEGGDQCAEFLHQATAYYASLGVRIDRVMTDNGSGYVSRTFRAVCVELGIRHIRTRPYTPKTNGKAERLVQTCLREWAYARPYTSSAERQAALQPFIDRYNWCRPHSALGHQPPITRIPDVNNLLRIDSEGHHHHHH,not soluble
11,MGSDKIHHHHHHMNDDIYDEMVRERGREYFLKNMVKYCVKRGNTLHGTVYGSDKYITKVDLKTKTGICTCPYQYNCKHAYALLESYKSGKYVDGDELFLNFSKLDKLEILKIFESIIEKHNLWDEFITEDKTLLDTAKNMLELTKIEKKNVFTFTSFLRNQFLKNAGNEELLLIIPDVIKYIQERKKLEEILFLIVDELFERGKTDKDTLKKLIELSRKYRELWMVKDNILDYEYFELLEY,not soluble
12,MGSDKIHHHHHHMRTFQYANANPSANVSPMGRTSLATSAAKARGPLNGLIAERMRQLNLSTVKDFADYAGIGRTSIHDLVRGRTTTSGTWTKPSFDTLTKLAVALDKPTHELLYLIDPEAPGANLMFDVQQVPVYIAGQVGAGPQQLWESSDVVYVERQFAENRDLIAFTVVGDSMAGGRHPIHDGDVVIVDQRVGGEVNFPVVARLKDDGHVVKRCGPAASSTAPTRTSWTLTPQSLPLTVSPTWWDASSG,not soluble
13,MTYVDGFVLPVPEGKIDAYRQMAESAGKIWMEHGALQYKECVLEDAKPEMPEDAPETCKITPFGKLAGTKDGETVIFAFIVYKSREHRDEVNKKVMADPRMQEACDENNMPFDPSRMAYGGFKALVDL,not soluble
14,MGSDKIHHHHHHMKTNYRLHMQQGSDYLKKFLEKHIDLLKKIPLFEGIKSDELEEMLECLGVVDKTYPKDSIIFSVGSEVTSIGIMLKGSAHIIKEDIEGNRNIVAELLPGDLFGEVFACTRLHKSNVTVTTTSSCEVLFIKFKSVTGICSSTCVFHNRLVENMLQLIAEKNILLHNKIELLSRKTTREKLLMYFSKQIEQTGSHQFTIPFSRNEMADFLCVDRSSMSRELGKMRDEGLLSFNKNKFEIFYFKK,not soluble
15,MADVEDGEETCALASHSGSSGSKSGGDKMFSLKKWNAVAMWSWDVECDTCAICRVQVMDACLRCQAENKQEDCVVVWGECNHSFHNCCMSLWVKQNNRCPLCQQDWVVQRIGKLEHHHHHH,soluble
16,DVKVQGCVEDADLLIVGFGGTYGHLYSAMEEMNHAGKKVALAHFVHLNPLPHNTAEVLKKYKKVVVAEQNLGQFAGYLRMKVDGFVPYQFNEVKGQPFVVSELVDAFTEILNK,not soluble
17,MPMFAWKGKRDKSMKVSVVIPVHNEASTLSKVLAEVKKLEPYEIIIVDNGSTDGTKEIALQHHCRVIYYNHSLGNDVGRAIGAREAKGEIVLFLDGDIVMKSEELYPFIKGIQQGHQIVLNNLTWSVYLKVRPHYTTVGKYMLNRYLNKKEFVVGSLIAIPHAISREVIEKLGWWNLADPALFQAMAMSRGVDISDMASVDVIYTNKVRPVHTGTSPDSPYPKATSRIMGDHLRALQYITETYGKRGGFSEGNRDREFIGKYKPVVLKKEKAKYSAIIPVSEEKTTIRSVIQEVKKAGVDEIIIVANGADIETIKQVNLENVIVVEVTKTLGNNVARAIGAMHATAEICLFVDGDYAIPAKKLVPFLRAIEDGSDMALNDLQCLLDIFHPADPISMGKYFVNLVAKRPDLWNNSLTAVPHAIRKKVIEKIGYDSLIIPPLAQMKAILEGFSITTVEFVDVIKTNRVRPEQHEFVNGRISAFDRIFGDQLEAIAYLLQHTDERGGFTDGDRDREIIQQLRREEENTNEY,not soluble
18,MGSDKIHHHHHHMSWHNKVVWSEGLFLRPQLFQQQERYLEHYAHRRAATLSPFFFGFSHYSLDSEALALGKVIVKSASGVFADGTPFDTPGSTPPPAPLTIRAEHLDQLIYLAVPVRVPNAEETTFDNAADSLARNFVFDTELRDTNSIGQGPKTVQLSNLRLRLVPEKELTDAWIGLALTRVKTIRADSSIVLDDTLIPPVAGFGASELLTSWLAKIHELTRLRANSLAIRLTGANGNAGTTAEVSDYLLLQTLNRYEPLLQHLRRVPTTSPADLYALLLSMAGELSTYLRTDSRRPLDSHPAYQHSTPHLCLKPLVDDTHVLLNAVLVRSAQSIELKELGHGMRNAVVDPVDMAGFTAVVLAVHAAMPPDLLQQQFAAQAKAGPSERLPDLVRGHLPGITLQALPVPPRQIPFNAGFVYYELARSGPLWDEVARHGGLALHVAGEFPSLKLELWGVRS,not soluble
19,MSLHEKKKENVPEWQHFDAAIFNKAKKEHKLVLLHLGANWCHWCHVMEEQTYTDPFVLELLNKSYIACKEDHDERQDLTSLYAAYGWPATIVFDADGNELLKEAGFISSDRFIALLKKLVKNPTPMPTDSVQIEPAVASDSSTQQALNTLKKKFYSSLDIEGGGFNYAQKYIDFETFEYAFNHSENDSILTKWLYNSVVNSAGLNDNVWGGVFQYSTHSDWNHLHYEKLLSIQARYIKMYCWYYKRFNDADALSHAESAAKYVQRFLDDPKGGFYNSQDADVTPGEKATEYFKLNNADRIKKGIPAIDKNSYTSDNAEMIEACIILSAATGNNTYLEKAVRCFDFIKKNNKTNNAYAHGSNYTNSISLKDNIAIVKSALLLYRATQDAAYKSEALRIIQEVAGTFYSKKGYMISFIGNSPIKGSYNITENIEACRLLNYCSHVFNEPKYKILAQTIFGFLTNENLVKTMSTEPGILSAYEELNTEPLKAVLMIKNGTELKTDFLNSSLSFPAFYFDNTIYTSTTIPSDKYELFDSFDKNFIVACTASYCSSPMFSKDGFEKFIYRRAFSTEGHHHHHH,soluble
20,MSPGSSTGMVSEKCGDAESKRAPYPPPLRLARRVCYPQYTQKSLDMRAQEKLVGRKRDMKMARFLAKQAKESKEMVKKAAKETTEKTTKNDSTV,not soluble
21,MKMTVVGFWGGFPEAGEATSGYLFEHDGFRLLVDCGSGVLAQLQKYITPSDIDAVVLSHYHHDHVADIGVLQYARLITSATKGQLPELPIYGHTFDENGFHSLTHEPHTKGIPYNPEETLQIGPFSISFLKTVHPVTCFAMRITAGNDIVVYSADSSYIPEFIPFTKDADLFICECNMYAHQEAAKAGHMNSTEVASIAKDANVKELLLTHLPHTGNPADLVTEAKQIFSGHITLAHSGYVWNS,soluble
